According to patent US20100092465A1, “TREATMENT OF GRAFT-VERSUS-HOST DISEASE” (priority 2006, published 2010):

Experiments:
[1] = biological target: T1, human ligand (single-chain IL27) (Homo sapiens, UniProt Q14213+Q8NEV9); assay: SPR kinetics of soluble receptor with human IL27 ligand; details: binding with human ligand; gp130 not included
T1 construct: amino-terminal peptide tag (N)
T1 sequence (Q14213+Q8NEV9 with tags, fused parts or gaps): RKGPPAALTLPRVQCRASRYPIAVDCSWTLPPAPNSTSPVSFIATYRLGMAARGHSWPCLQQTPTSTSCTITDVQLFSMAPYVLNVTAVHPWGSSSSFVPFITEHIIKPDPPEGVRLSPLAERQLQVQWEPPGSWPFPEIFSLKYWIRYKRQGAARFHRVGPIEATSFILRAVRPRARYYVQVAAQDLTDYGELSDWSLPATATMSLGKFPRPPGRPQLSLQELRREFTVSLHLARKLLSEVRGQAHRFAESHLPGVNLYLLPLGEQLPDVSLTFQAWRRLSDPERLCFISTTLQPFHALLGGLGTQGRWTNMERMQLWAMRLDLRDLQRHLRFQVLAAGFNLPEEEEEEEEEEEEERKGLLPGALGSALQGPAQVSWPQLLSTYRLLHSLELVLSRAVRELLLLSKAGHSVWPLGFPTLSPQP
Experimental: Kinetic rate and affinity constant values for the mouse (IL27RAm(mFc1), Example 3) and human (IL27RA-Fc5, Example 4) soluble receptors were obtained by surface plasmon resonance (SPR) using an automated instrument (BIACORE 3000; Biacore International AB, Uppsala, Sweden). The mouse soluble receptor was tested against mouse ligand (lot A1418F), and the human soluble receptor was tested against both mouse (A1426F) and human (A1534F) ligands. For determination of the kinetic rate constants for the receptor-ligand interactions, the gp130 molecule was not included as part of the receptor complex.
The IL27 ligands used in this study were single-chain molecules comprising EBI3 connected by its C-terminus to the N-terminus of IL-27 p28 via a polypeptide linker. Each of the ligands included an amino-terminal peptide tag.
For the mouse IL27RA study, the soluble receptor was captured onto the chip surface by an isotype-specific anti-mouse Fc antibody (obtained from Jackson ImmunoResearch Laboratories, Inc., West Grove, Pa.) covalently immobilized to the chip (BIACORE CM5 chip) using the standard amine coupling protocol specified by the instrument manufacturer. […]
All data were assessed using software provided with the instrument (BIACORE Evaluation software v. 3.2). […]

P815 cells = assay: CTL-specific lysis assay with splenocytes of GVHD mice; type: cell-based, mouse; details: splenocytes of treated animals versus PBS; calcein-labeled P815 targets
Experimental: Efficacy of IL-27 antagonists was assayed in a mouse model of acute graft-vs-host disease (Durie et al., J. Clin. Invest. 94:1333-1338, 1994). Parental mice (C57BL/6; n=12) were euthanized, and their spleens were collected. The pooled spleens were smashed using two glass slides to dissociate splenic cells. Lysis buffer was added to the splenocyte suspension to remove red blood cells. The cells were washed in RPMI 1640 (10% FBS) medium and resuspended in an appropriate amount of PBS to make a cell concentration of 300 million cells/ml. Protein treatments were administered by intraperitoneal injection every other day beginning on day-1 and continuing until day 15. Dexamethasone (DEX) was administered by injection daily on days 0 through 6. […] Mice were monitored 3 times a week for changes in body weight and any signs of moribundity. […] Spleens were collected, and a CTL-specific lysis assay using P815 cells was performed as a quantitative measurement of acute GVHD. […]
For CTL assay, P815 cells (a tumor cell line from mice with the same MHC class as DBA2) were labeled with calcein, then splenocytes from each experimental animal were added to the calcein-labeled P815 cells at effector (splenocytes):target (P815) ratios of 100:1, 33:1, and 10:1. Four hours after incubation at 37° C., supernatants were collected and fluorescence was measured (485 nm/535 nm).

human IL-27RA-Fc5: human IL27RA extracellular domain (amino acids 1 to 512 of SEQ ID NO:5) fused to Fc5, effector minus human gamma1 Fc; SEQ ID NO:3
ka [1]: 1e+07 M⁻¹ s⁻¹ | kd [1]: 0.0019 s⁻¹ | CTL activity (P815 cells): reduced CTL activity compared to PBS
